# T1: mouse PRLR on HEK293/mPRLR cells (Mus musculus, UniProt Q08501)
# T1 construct: HA; expressed in transfected cells; host or cells: HEK293
# T1 sequence (Q08501 20-608): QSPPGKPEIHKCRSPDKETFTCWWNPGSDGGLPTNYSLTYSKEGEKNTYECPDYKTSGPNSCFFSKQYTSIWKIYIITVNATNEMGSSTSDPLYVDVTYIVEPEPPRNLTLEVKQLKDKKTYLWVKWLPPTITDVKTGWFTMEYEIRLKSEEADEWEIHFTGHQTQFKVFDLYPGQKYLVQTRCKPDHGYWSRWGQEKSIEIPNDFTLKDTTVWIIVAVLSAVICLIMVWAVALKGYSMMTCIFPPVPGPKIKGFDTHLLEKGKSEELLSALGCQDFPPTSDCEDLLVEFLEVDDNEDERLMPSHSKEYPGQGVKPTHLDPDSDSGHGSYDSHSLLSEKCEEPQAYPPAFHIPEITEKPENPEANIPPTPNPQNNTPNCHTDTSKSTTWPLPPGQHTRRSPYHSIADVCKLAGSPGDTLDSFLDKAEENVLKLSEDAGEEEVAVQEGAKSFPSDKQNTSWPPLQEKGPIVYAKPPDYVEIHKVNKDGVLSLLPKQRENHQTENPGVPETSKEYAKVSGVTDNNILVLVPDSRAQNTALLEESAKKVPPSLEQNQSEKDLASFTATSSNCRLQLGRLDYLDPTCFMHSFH
# T2: monkey PRLR on HEK293/mfPRLR cells (Macaca fascicularis, UniProt A0A2K5WXK1)
# T2 construct: HA; expressed in transfected cells; host or cells: HEK293
# T2 sequence (A0A2K5WXK1 25-619): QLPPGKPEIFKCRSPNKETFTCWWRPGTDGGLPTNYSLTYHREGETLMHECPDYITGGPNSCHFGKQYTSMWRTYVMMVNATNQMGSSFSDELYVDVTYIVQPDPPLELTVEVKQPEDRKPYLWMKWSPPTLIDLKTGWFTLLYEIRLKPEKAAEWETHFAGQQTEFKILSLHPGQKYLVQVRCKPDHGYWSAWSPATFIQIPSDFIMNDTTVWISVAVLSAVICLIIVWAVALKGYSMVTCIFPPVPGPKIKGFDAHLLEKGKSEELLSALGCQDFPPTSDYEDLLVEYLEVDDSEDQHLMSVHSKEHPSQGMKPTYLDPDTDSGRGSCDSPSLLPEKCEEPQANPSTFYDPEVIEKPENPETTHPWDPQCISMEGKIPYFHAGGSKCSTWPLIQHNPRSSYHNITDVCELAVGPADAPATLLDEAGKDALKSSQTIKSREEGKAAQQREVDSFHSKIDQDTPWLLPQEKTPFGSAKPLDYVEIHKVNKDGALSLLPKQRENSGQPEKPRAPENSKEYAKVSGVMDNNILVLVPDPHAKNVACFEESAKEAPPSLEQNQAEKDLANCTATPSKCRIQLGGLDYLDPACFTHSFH
# T3: human PRLR on HEK293/hPRLR cells (Homo sapiens, UniProt P16471)
# T3 construct: HA; expressed in transfected cells; host or cells: HEK293
# T3 sequence (P16471 25-622): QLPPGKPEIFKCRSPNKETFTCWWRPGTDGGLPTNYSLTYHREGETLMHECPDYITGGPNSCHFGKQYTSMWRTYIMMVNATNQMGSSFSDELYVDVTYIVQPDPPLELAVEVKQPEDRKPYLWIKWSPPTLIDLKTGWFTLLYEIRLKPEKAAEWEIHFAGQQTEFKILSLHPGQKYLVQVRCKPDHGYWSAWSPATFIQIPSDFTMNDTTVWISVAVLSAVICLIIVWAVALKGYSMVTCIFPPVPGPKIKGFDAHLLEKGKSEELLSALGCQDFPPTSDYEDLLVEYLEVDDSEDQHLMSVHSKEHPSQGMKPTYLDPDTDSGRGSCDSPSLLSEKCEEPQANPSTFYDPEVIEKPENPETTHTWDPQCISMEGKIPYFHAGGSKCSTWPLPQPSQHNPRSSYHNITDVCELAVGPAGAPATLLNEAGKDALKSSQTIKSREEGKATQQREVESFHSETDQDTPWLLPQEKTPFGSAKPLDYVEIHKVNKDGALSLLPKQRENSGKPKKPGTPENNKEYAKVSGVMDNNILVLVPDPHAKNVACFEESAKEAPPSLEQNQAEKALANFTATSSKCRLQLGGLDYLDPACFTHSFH
# B1: H1H6774P: fully human anti-PRLR antibody, human IgG1 Fc; HCVR/LCVR SEQ ID NOs 34/42 (antibody, V domains shown)
# VH: EVQLVESGGGLAQPGGSLRLSCVASGFTFSTYWMSWVRQAPGKGLDWVGNIKQDGSEQNYVDSVRGRFTISRDNAKNSLFLQMNSLRAEDTGVYYCATLLTKGDYWGQGTLVTVSS
# VL: DIQMTQSPSSLSASVGDSVTITCRASQDISNYLDWFQQKPGKAPKSLIYAASILQGGVPSRFSGSGYGTDFTLTISSLQPEDFATYYCRQYKTYPFTFGPGTKVDIK
# B2: H1H6797P: fully human anti-PRLR antibody, human IgG1 Fc; HCVR/LCVR SEQ ID NOs 178/186 (antibody, V domains shown)
# VH: EVQLVESGGGLVQPGGSLRLSCIVSGFTFSGSWMSWVRQLPGKGLEWVANIKEDGSDSYYVDSVEGRFTISRDNAKSSLYLQMNSLRVDDTAVYFCARARTVPLHYWGQGTLVTVSS
# VL: DIQMTQSPSTLSASVGDRVTITCRASQSINIWLAWYQQKPGKAPKLLIYRASYLESGVPSSFAGGGSGTEFTLTISSLQPDDFGTYYCQHYNSYPFTFGQGTKLEIK
# B3: H1H6782P: fully human anti-PRLR antibody, non-blocking; HCVR/LCVR SEQ ID NOs 66/74 (antibody, V domains shown)
# VH: EVQLVESGGGLVQPGRSLRLSCAASGFTFDDYAMHWVRQAPGKGLEWVSGIIWNSGHIGYGDSVKGRFTISRDNAKKSLYLQMNSLRAEDTALYYCARDSGRYQSYFDYWGQGTLVTVSS
# VL: DIQMTQSPSTLSASVGDRVTITCRASHIISSWLAWYQQKPGKAPKVLIFKASSLESGVPSRFSGSGSGTEFTLTISSLQPDDFATYYCQQYNTYSRTFGQGTKVEIK
# B4: H1H6795P: fully human anti-PRLR antibody, human IgG1 Fc; HCVR/LCVR SEQ ID NOs 162/170 (antibody, V domains shown)
# VH: QVQLVQSGAEVKKPGASVKVSCKASGYTFGTSGITWVRQAPGQGLEWMGWSSAYNGKTDYAQKFQDRVTMTTDTSTTTGYMEMRSLTSDDTAVYYCTTVVRRPFDFWGQGTLVTVSS
# VL: DIQMTQSPSSLSASVGDRVTITCRASQDINNFLAWFQQKPGKAPKSLIYAASSLQSGVPSKFSGGGSGTDFALTISSLQPEDFATYYCQQYSSYPITFGQGTRLEIK
# B5: H1H6958N2: anti-PRLR antibody, receptor blocking, human IgG1 Fc form of H2M6958N2 of Table 1; HCVR/LCVR SEQ ID NOs 290/298 (antibody, V domains shown)
# VH: QVQLVESGGGVVQPGRSLRLSCGASGFTFRNYGMQWVRQGPGKGLEWVTLISFDGNDKYYADSVKGRFTISRDNSKNTLFLQMNSLRTEDTAVYYCARGGDFDYWGQGTLVTVSS
# VL: DIQMTQSPSSLSASVGDRVTITCRASQDIRKDLGWYQQKPGKAPKRLIYAASSLHSGVPSRFSGSGSGTEFTLTISSLQPEDFATYYCLQHNSYPMYTFGQGTKLEIK
# B6: H1H6953N: anti-PRLR antibody, human IgG1 Fc form of H1M6953N of Table 1; HCVR/LCVR SEQ ID NOs 274/282 (antibody, V domains shown)
# VH: EVQLLESGGGLVQPGGTLRLSCAASGFTFSAYAMSWVRQAPGKGLEWVSSINVRAGDTYYADSVKGRFTISRDNSKNTLFLLMNSLRAEDTAAYYCAKARYSSNWGFDFWGQGTLVTVSS
# VL: DIVMTQSPDSLTVSLGARTTINCQSSQTILHSSNNHNYLAWYQQKPGLPPKLLIYWSSTRESGVPDRFSGSGSGTDFTLTISSLQAEDVAIYYCQQYSNTPYTFGQGTKLEIN
# B7: H1H6765P: fully human anti-PRLR antibody, human IgG1 Fc; HCVR/LCVR SEQ ID NOs 18/26 (antibody, V domains shown)
# VH: EVQLVESGGGVVRPGGSLRLSCVGSGFSFDDHGMNWVRQGPGKGLEWVSGFNWNGGSTNYAESVKGRFTISRDNARNSLFLQMNSLRAEDTALYYCVRGRSGWFNDAFDVWGPGTMVTVSS
# VL: EIVLTQSPGTLSLSPGERATLSCRASQTINSNYLAWYRQKPGQTPRLLIYGTSSRATGIPDRFSGSGSGTDFSLTISRLEPEDFAVFYCQQYAGLPTFGPGTKVDIK
# B8: H1H6975N: anti-PRLR antibody, human IgG1 Fc form of H2M6975N of Table 1; HCVR/LCVR SEQ ID NOs 370/378 (antibody, V domains shown)
# VH: EVHLVESGGGLVQPGGSLRLSCAASGFTFSSYEMNWVRQTPGKGLEWISHISSRSVIIYYADSVKGRFTISRDNAKNSLFLQMNSLRAEDTAVYFCAGITIFGIPEYWGQGTLVTVSS
# VL: EIVLTQSPATLSLSPGERATLSCRASQSVSSYFAWYQQKPGQAPRLLIYDASSRATGIPTRFSGSGSGTDFTLTISSLEPEDFAVYYCQQRSSWPITFGQGTRLEIK
# modifications: human IgG1 Fc
# What was measured:
# Test in all cases: FACS cell surface binding
# [1] = molecular target: T1, mouse PRLR on HEK293/mPRLR cells
# Outline: (§1)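 Stable HEK293 transfectants carrying HA-tagged PRLR (human, Macaca fascicularis, mouse) were selected ≥2 weeks in G418. Cells were exposed to 10 μg/ml test antibody on ice for 30 min, washed, and labelled with PE anti-human antibody. Fluorescence was reported as fold change versus isotype.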
# [2] = molecular target: T2, monkey PRLR on HEK293/mfPRLR cells
# Outline: as §1
# [3] = molecular target: T3, human PRLR on HEK293/hPRLR cells
# Outline: as §1
Molecule,FACS Cell Binding [1] [Fold Above Background],FACS Cell Binding [2] [Fold Above Background],FACS Cell Binding [3] [Fold Above Background]
B1,1,29,1
B2,2,25,1
B3,4,32,41
B4,1,22,1
B5,1,30,35
B6,2,29,37
B7,1,27,38
B8,1,29,38

# From US10925971B2, “Methods of treating PRLR positive breast cancer” (Regeneron Pharmaceuticals, Inc., priority 2016, dated 2021)
